The target of assay [1] is human ameloblastin full-length isoform I (AMBN ISO I) (human) (UniProt Q9NP70). Briefly: AUC; sedimentation velocity, 23 uM protein, 20 °C, 10 mM Tris-HCl pH 7.4, 100 mM NaCl, no Ca2+; c(s) with bimodal f/f0; average size of heterogeneous oligomers.
For assay [2] the target is unchanged. The experiment in a line: AUC; sedimentation velocity, 23 uM protein, 20 °C, 10 mM Tris-HCl pH 7.4, 100 mM NaCl, with 10 mM CaCl2; c(s) with bimodal f/f0; average size of heterogeneous oligomers.
Assay [3] concerns the target human ameloblastin full-length isoform II (AMBN ISO II) (human) (UniProt Q9NP70). Briefly: AUC; sedimentation velocity, 23 uM protein, 20 °C, 10 mM Tris-HCl pH 7.4, 100 mM NaCl, no Ca2+; c(s) with bimodal f/f0; average size of heterogeneous oligomers.
Assay [4] has the same target. Briefly: AUC; sedimentation velocity, 23 uM protein, 20 °C, 10 mM Tris-HCl pH 7.4, 100 mM NaCl, with 10 mM CaCl2; c(s) with bimodal f/f0; average size of heterogeneous oligomers.

For “human ameloblastin full-length isoform I (AMBN ISO I) (from UniProt Q9NP70-1 27-447) (natural protein)”, the values for the stoichiometry N in assay [1] and in assay [2] were 28 monomers and 33 monomers, respectively.

“human ameloblastin full-length isoform II (AMBN ISO II) (from UniProt Q9NP70-2 27-432) (natural protein)”: the stoichiometry N (in general, the number of molecules, sites or subunits per partner or assembly) in assay [3] is 19 monomers; in assay [4] it was 20 monomers.

For the origin of these results see article PMC7730623.
